Biological target: T1, TRAIL R1-Fc fusion protein (UniProt O00220 24-239, limits assumed)
T1 construct: The construct is not described beyond its name; not shown: Fc portion
Assay: immunoprecipitation with receptor-Fc from lysates of HA-TRAIL-s transfected 293T cells, Western blot

T1 sequence (O00220 24-239 limits assumed): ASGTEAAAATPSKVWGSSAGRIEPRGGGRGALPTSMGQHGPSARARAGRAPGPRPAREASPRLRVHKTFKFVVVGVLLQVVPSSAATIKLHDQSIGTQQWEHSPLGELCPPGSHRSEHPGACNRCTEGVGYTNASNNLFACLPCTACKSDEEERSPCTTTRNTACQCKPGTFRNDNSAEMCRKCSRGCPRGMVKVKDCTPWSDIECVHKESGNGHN

- binding result: no binding
B1: HA-tagged TRAIL-s (ligand)
chain: MAMMEVQGGPSLGQTCVLIVIFTVLLQSLCVAVTYVYFTNELKQMQDKYSKSGIACFLKEDDSYWDPNDEESMNSPCWQVKWQLRQLVRKTPRMKRLWAAK
notes: also called HA-TRAIL-s; not shown: HA tag of the HA-pcDNA3 vector

From patent publication US20100172914A1 (MAYO FOUNDATION FOR MEDICAL EDUCATION AND RESEARCH, published 2010)
